Paper PMC12482432

Columns and labels:
[1] = test system: T1, EefR (Escherichia coli ATCC 35218 (35218m, acrB-deficient)), ORF:f1625a7f; assay: competition; details: EMSA in binding buffer (Beyotime kit, composition not given), 25 °C, 20 min; 6% native PAGE at 4 °C; salt and pH not stated
T1 sequence: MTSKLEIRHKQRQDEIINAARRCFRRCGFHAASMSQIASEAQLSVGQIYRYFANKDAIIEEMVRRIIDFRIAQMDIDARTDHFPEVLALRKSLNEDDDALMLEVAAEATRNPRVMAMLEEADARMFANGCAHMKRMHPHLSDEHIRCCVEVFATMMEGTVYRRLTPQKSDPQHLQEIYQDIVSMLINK

[2] = test system: T1, EefR (Escherichia coli ATCC 35218 (35218m, acrB-deficient)), ORF:f1625a7f; assay: EMSA; details: EMSA in binding buffer (Beyotime kit, composition not given), 25 °C, 20 min; 6% native PAGE at 4 °C; salt and pH not stated

Sequence | binding [1] | binding [2]
CACAATCTCTTCATTATCAGAATATGCACCATGAATAAGATAAAAATACTTTCCATTACTTTGGAGAAACGTATAATCAGCAAAAATGAGAACGATCATTCTCACCAAGTGATAGGCCAGGAGACAGAA (double strand) [P1 cold probe] | binds | 
ACAGAATTAACCAATAGCGGGGGATATTAATCCCCCTTATTTCATTGCGAAATTCATTTCGCGATGCGGGTTCGTTATAACTGAATATCCCTGACATATCCTCATTAATTTTAATGAGGAGGGTATTTCTCACCCTGGAGAAAATA (double strand) [nonspecific probe (148 bp)] | no binding | 
CACAATCTCTTCATTATCAGAATATGCACCATGAATAAGATAAAAATACTTTCCATTACTTTGGAGAAACGTATAATCAGCAAAAATGAGAACGATCATCCTCACCAAGTGATAGGCCAGGAGACAGAA (double strand) [M1 (one base mutated, MT-1)] |  | no binding
CACAATCTCTTCATTATCAGAATATGCACCATGAATAAGATAAAAATACTTTCCATTACTTTGGAGAAACGTATAATCAGCAAAAATGAGAACGATCATTCTCACCAAGTGATAGGCCAGGAGACAGAA (double strand) [P1 (129 bp eefR upstream probe)] |  | binds
